Experimental data reported in patent publication US20190144550A1 (Pfizer, published 2019).
Positions count from the first letter of the chain named.

B1: 46E10 (antibody, V domains shown)
VH: QVTLKESGPVLVKPTETLTLTCTVSGFSLSNARMGVSWIRQPPGKALEWLAHIFSTDEKSIRRSLRSRLTLSKDTSKSQVVLIMTNMDPVDTATYYCARDSSNYEGYFDYWGQGTLVTVSS
VL: EVVMTQSPPNLSVSPGERATLSCRASQSVTSNFAWYQQRPGQSPRLLLYGASTRATGVPGRFSGSGSGTENILTISSLQSEDFAVYFCQQYKDWPFTFGPGSKVDIK
notes: Hybridoma supernatant (AlivaMab mouse); captured/detected via mouse Fc
B2: 32A10 (antibody, V domains shown)
VH: B1 VH with I83T, Y96F
VL: B1 VL with P9A, N10T, A19V, T30S, S43A, S52T, V58L, V85I
notes: as for B1
B3: 21E7 (antibody, V domains shown)
VH: B1 VH with K5E, L47P, L50F, I61L, R63L, I83T
VL: DVVLTQSPATLSVSPGERATLSCRASQSVNSNLAWYQQNPGQAPRLLIFGSSTRATGIPASFSGSGSGTEFTLTINSLQSEHSAVYYCQQYNDWPFTFGPGTKVDIK
notes: as for B1
B4: 29D5 (antibody, V domains shown)
VH: B1 VH with A32P, I39L, L50F, I61Y, R62S, R63P, S67G, L71V, I83T, M84L
VL: KIVMTQSPATLSVSPGERATLSCRANQIVSSNLAWYQQKPGQAPRLLVFGTSTRATGIPIRFSGSGSGTEFTLTVSSLQSEDFAVYVCQQYNDWPFTFGPGTKVDIK
notes: as for B1
B5: 20B9 (antibody, V domains shown)
VH: QVTLKESGPVLVKPTETLTLTCTVSGFSLSNARMGVSWIRQPPGKALEWLGHIFSTDEKSYSTSLRGRITISKDTSRGLVVLTLTNMDPVDTATYYCARDSSNYEGYFDFWGPGFLVTVSS
VL: EIVMTQSPATLSVSPGERATLSCRVSQSIGANLAWYQQKFGQAPRLLIYGASTRATGIPVRFSGGGSGTEFTLTISSLQSEDFAIYSCQQYIYWPFTFGPGTTVDIK
notes: as for B1
B6: h62G7-L6/EQ scFv-Fc protein (Fc fusion)
chain: DVVMTQSPLSLPVTLGQPASISCKSSQSLLYSNGKTYLNWFQQRPGQSPRRLIYQVSKLDSGVPDRFSGSGSGTDFTLKISRVEAEDVGVYYCGQDTHFPLTFGGGTKVEIKGGGGSGGGGSGGGGSGGGGSQVQLVQSGAEVKKPGASVKVSCKASGYTFTDYTLHWVRQAPGQGLEWMGGIWPITGGTTYNQKFKGRVTMTRDTSTSTVYMELSSLRSEDTAVYYCARGEAQGSWGQGTLVTVSS
notes: not shown: human IgG1 Fc moiety
B7: 12B2 (antibody, V domains shown)
VH: B1 VH with A32P, A51G, T56S, I61Y, R63L, T70S, L71I, I83T, A98V, E105G
VL: EVVMTQSPATLSVSPGERATLSCRASQSVINNLAWYQQKPGQAPRLLIYGTSTRATDIPARFSGSGSGTEFTLTISSLQSEDFAVYYCQDYNNWPFTFGPGTKVDIK
notes: as for B1
B8: 11F10 (antibody, V domains shown)
VH: QVTLKESGPVLVKPIETLTLTCTVCGFSLSNPRMGVSWIRQPPGKALEWLGHIFSSDEKSYRLFLRSRLSISKDTSKSQVVLTMTNMDPVDTATYYCARDSSDYEGYFDYWGQGTLVTVSS
VL: EIVMTQSPATLSVSPGERTTLSCRASQSVGSNLAWYQQKPGQAPRLLIYGASTRASGVPARFSGSGSGTEFTLTISSLQSEDFAVYSCQEYNNWPFTFGQGTKVEIK
notes: as for B1

Columns and labels:
[1] = biological target: T1, 8-histidine tagged recombinant wild-type protein EGFRwt (UniProt P00533 25-645, limits assumed); assay: SPR, captured by anti-mouse Fc
T1 construct: not shown: 8-histidine tag

[2] = biological target: T2, human EGFRvIII expressed on cells (human, UniProt P00533 298-1210); assay: flow cytometry, F98-npEGFRvIII cells
T2 construct: the F98-npEGFRvIII line was obtained from ATCC and its construct is not described; also called F98-npEGFRvIII; F98-EGFRvIII

[3] = biological target: T3, Monomeric 8-histidine tagged human EGFRvIII extracellular domain (human, UniProt P00533 298-645); assay: SPR, captured by anti-mouse Fc, 37 C
T3 construct: Analyte in all SPR assays; not shown: 8-histidine tag
From the text: To generate human antibodies against EGFRvIII, transgenic AlivaMab mice (Ablexis LLC, San Francisco, Calif.) were immunized with alternating schedule of paraformaldehyde-fixed rat glioblastoma cell line expressing EGFRvIII, F98-npEGFRvIII (American Type Culture Collection, Manassas, Va.) and peptides (SEQ ID NO: 227: […]) directed to the junction region in EGFRvIII. Hybridomas were generated using standard techniques. To determine the binding affinity and specificity of these hybridomas to EGFRvIII, antibodies in culture supernatants were captured by anti-mouse Fc using Biacore™ T200 biosensor equipped with anti-mouse Fc coupled CM4 sensor chips (Biacore™ AB, Uppsala, Sweden—now GE Healthcare). Monomeric 8-histidine tagged human EGFRvIII extracellular domain was then injected as the analyte at 10-fold dilution series starting with top concentration 1000 nM. Affinity of anti-EGFRvIII antibodies towards human EGFRvIII was measured at 37° C.

[4] = biological target: T2, human EGFRvIII expressed on cells; assay: flow cytometry, F98-npEGFRvIII against F98, F98-EGFRwt and A431 cells
[5] = biological target: T3, Monomeric 8-histidine tagged human …; assay: SPR, scFv-Fc captured by anti-human Fc, 37 C
Protocol: The scFv fragment was then fused to human IgG1 Fc moiety to facilitate recombinant expression and purification. Affinities of the scFv-Fc fusion proteins were measured at 37° C. on a surface plasmon resonance Biacore™ T200 biosensor equipped with an anti-human Fc coupled CM4 sensor chip (GE Healthcare Inc., Piscataway, N.J.) as described above. scFv-Fc proteins were captured by anti-human Fc. Monomeric 8-histidine tagged human EGFRvIII extracellular domain was then injected as the analyte at 10-fold dilution series starting at 1000 nM.

[6] = biological target: T1, 8-histidine tagged recombinant …; assay: SPR, captured by anti-human Fc, 25 C

Row | Binder | binding result [1] | % positive [2] [%] | MFI [2] | Kd [3] [nM] | koff [3] [s⁻¹] | kon [3] [M⁻¹ s⁻¹] | fold MFI on EGFRvIII expressing cell line over non-expressing cell lines [4] [fold] | Kd [5] [nM] | koff [5] [s⁻¹] | kon [5] [M⁻¹ s⁻¹] | binding result [6]
1 | B1 | no binding (tested: 1000 nM) | 98.7 | 2990 | 12 | 0.000716 | 59700 | ≥ 10 |  |  |  | 
2 | B2 | no binding (tested: 1000 nM) | 98.3 | 3350 | 9.6 | 0.000626 | 65400 | ≥ 10 |  |  |  | 
3 | B3 | no binding (tested: 1000 nM) | 98.5 | 3100 | 19.9 | 0.0013 | 65200 | ≥ 10 |  |  |  | 
4 | B4 | no binding (tested: 1000 nM) | 97.9 | 2830 | 41.6 | 0.00424 | 102000 | ≥ 10 |  |  |  | 
5 | B5 | no binding (tested: 1000 nM) | 98.3 | 3420 | 32.1 | 0.0015 | 46700 | ≥ 10 |  |  |  | 
6 | B6 |  |  |  |  |  |  |  | 101 | 0.076 | 750000 | no binding (tested: 1000 nM)
7 | B7 | no binding (tested: 1000 nM) | 97.9 | 2750 | 24.3 | 0.00179 | 73800 | ≥ 10 |  |  |  | 
8 | B8 | no binding (tested: 1000 nM) | 98 | 3280 | 42.4 | 0.00281 | 66300 | ≥ 10 |  |  |  | 
